Assay [1] has as its target type V tartrate-resistant acid phosphatase (TRAP) protein, immobilised on CM5 sensor chip. Briefly: SPR, TRAP on CM5 chip, initial rate analysis of sensorgrams. A general note: SPR reads the build-up and loss of mass on a sensor chip optically.
In assay [2] the target is T1, TRAP deposited by previous osteoclast activity on human cortical bone wafers (human, UniProt P13686 22-325, limits assumed).
T1 construct: The target is TRAP on a bone surface, not purified protein; The species follows from the human donor bone; also called bone resorption pits
T1 sequence (looked up): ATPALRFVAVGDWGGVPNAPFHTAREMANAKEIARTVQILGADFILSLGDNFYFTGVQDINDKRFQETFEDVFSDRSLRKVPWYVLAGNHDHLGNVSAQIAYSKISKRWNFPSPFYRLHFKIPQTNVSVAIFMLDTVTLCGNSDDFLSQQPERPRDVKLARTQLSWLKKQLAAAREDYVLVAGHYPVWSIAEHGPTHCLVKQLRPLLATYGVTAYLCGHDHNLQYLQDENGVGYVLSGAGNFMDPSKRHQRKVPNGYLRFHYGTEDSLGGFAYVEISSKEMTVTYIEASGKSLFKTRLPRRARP
Briefly: confocal imaging of fluorescent peptide on human cortical bone wafers decorated with TRAP. On the procedure:
Equal concentrations of fluorescently labeled TBP and SCP are prepared in 1× phosphate-buffered saline (PBS). Bone wafers are cut from cortical bone obtained from the femur of a human donor cadaver and incubated in peptide solutions overnight, washed twice with 1×PBS, and then visualized via confocal imaging. Stacked sections are compressed into 2D images to allow for qualitative analysis as in FIG. 3A through FIG. 3D.

Assay [3] deals with type V tartrate-resistant acid phosphatase (TRAP) protein, immobilised on CM5 sensor chip. Briefly: SPR, TRAP on CM5 chip, binding curve fit (n = 2, Ave. ± StDev).
For assay [4] the target is unchanged. The assay can be described thus: SPR, TRAP on CM5 chip; lower end of a range told of the peptide-functionalized polymers.
For assay [5] the target is unchanged. The assay can be described thus: SPR, TRAP on CM5 chip; upper end of a range told of the peptide-functionalized polymers.
For assay [6] the target is unchanged. Briefly: SPR, TRAP on CM5 chip, binding curve fit.
Assay [7] has the same target. The assay can be described thus: SPR, TRAP on CM5 chip, steady-state response vs concentration fit.

Ends that are not written are not given here. * marks the point of attachment. Methacryloyl = C=C(C)C(=O)*

B1: 20% TBP-functionalized PEG polymer, M:CTA:I 500:1:0.1, Mn 32.7 kDa (Table 4) (peptide)
peptide: Methacryloyl-TPLSYLKGLVTVG
modifications: not fully specified; also: RAFT copolymer with PEG methyl ether methacrylate, about 12 peptides per chain
As a reminder, the Kd is a measure of binding affinity in units of concentration. High values mean weaker binding, low ones tighter binding. For B1, the Kd in assay [1] turned out to be 70 µM.

B2: 5% TBP-functionalized PEG polymer, M:CTA:I 250:1:0.1, Mn 42.3 kDa (Table 4) (peptide)
peptide: Methacryloyl-TPLSYLKGLVTVG
modifications: not fully specified; also: RAFT copolymer with PEG methyl ether methacrylate, about 5 peptides per chain
B2 gave a Kd in assay [1] of 80 µM.

B3: fluorescently labeled scrambled control peptide (SCP) (peptide)
peptide: VPVGTLSYLKLTG
modifications: also: fluorescent cadaverine coupled, site not given here
notes: also called fluorescently labeled SCP; Control (SCP)
On to B3, for which the binding result in assay [2] was “no binding”.

B4: 5% TBP-functionalized PEG polymer, M:CTA:I 125:1:0.1, Mn 17.1 kDa (Table 4) (peptide)
peptide: Methacryloyl-TPLSYLKGLVTVG
modifications: not fully specified; also: RAFT copolymer with PEG methyl ether methacrylate, about 3 peptides per chain
In assay [1], B4 yielded a dissociation constant (Kd) of 70 µM.

B5: 20% peptide monomer TBP-functionalized PEG polymer (Table 1, Mn 26700 Da) (peptide)
peptide: Methacryloyl-TPLSYLKGLVTVG
modifications: also: RAFT copolymer with PEG monomethyl ether methacrylate, multivalent
On to B5, for which the Kd in assay [3] was 7.5 µM; in assay [4], 7.1 to 21 µM.

B6: 10% peptide monomer TBP-functionalized PEG polymer (Table 1, Mn 69000 Da) (peptide)
peptide: Methacryloyl-TPLSYLKGLVTVG
modifications: also: RAFT copolymer with PEG monomethyl ether methacrylate, multivalent
Consider B6, for which the Kd in assay [3] stood at 12.7 µM. This counts as double-digit micromolar.

B7: 5% peptide monomer TBP-functionalized PEG polymer (Table 1, Mn 103900 Da) (peptide)
peptide: Methacryloyl-TPLSYLKGLVTVG
modifications: also: RAFT copolymer with PEG monomethyl ether methacrylate, multivalent
As to B7, the Kd is 21.7 µM in assay [3] and 7.1 to 21 µM in assay [5].

B8: 5% TBP-functionalized PEG polymer, M:CTA:I 600:1:0.1, Mn 98.2 kDa (Table 4) (peptide)
peptide: Methacryloyl-TPLSYLKGLVTVG
modifications: not fully specified; also: RAFT copolymer with PEG methyl ether methacrylate, about 11 peptides per chain
The molecule B8 had an equilibrium dissociation constant (Kd) in assay [1] of 140 µM.

B9: 10% TBP-functionalized polymer (pTBP), M:CTA:I 300:1:0.1, Mn 40.1 kDa (Table 4) (peptide)
peptide: Methacryloyl-TPLSYLKGLVTVG
modifications: not fully specified; also: RAFT copolymer with PEG methyl ether methacrylate, about 9 peptides per chain
For the molecule B9, the dissociation constant Kd in assay [1] came out at 60 µM.

B10: TRAP-binding peptide (TBP) (peptide)
peptide: TPLSYLKGLVTVG
With B10, the results for the dissociation constant (Kd) in assay [6], in assay [3] and in assay [7] were 700 µM, 795 µM and 200 µM, respectively.

Source of the values: patent publication US20170072062A1 (published 2017).
